Measurements taken from article PMC10284872, “FRET analysis of the temperature-induced structural changes in human TRPV3” (Scientific Reports, 2023).

Biological target: the molecule itself
Assay: SEC; fluorescence-detection size-exclusion chromatography (FSEC); heat-treated (42 °C) samples of each construct compared with a heat-untreated sample

| Protein | stoichiometry N |
| --- | --- |
| human TRPV3 single-cysteine construct A131C (cysteine-free background, K169A) (natural protein, UniProt Q8NET8 1-790, looked up, C131 labelled with sulfo-Cy3 maleimide or sulfo-Cy5 maleimide (1:1 mixture) in the FRET samples, human TRPV3, full length; printed as A131C on the cysteine-free construct, so the native C131 stands again and the other 12 cysteines are replaced; K169A added; Homotetrameric channel in DDM/CHS with lipids; also called hTRPV3 A131C; ARD construct; source: Sf9 cells, baculovirus (Bac-to-Bac), purified (DDM/CHS solubilisation, anti-FLAG resin)) MKAHPKEMVPLMGKRVAAPSGNPAILPEKRPAEITPTKKSAHFFLEIEGFEPNPTVAKTSPPVFSKPMDSNIRQAISGNADDMDSPQSPQDDVTETPSNPNSPSAQLAKEEQRRKKRRLKKRIFAAVSEGCVEELVELLVELQELARRRHDEDVPDFLMHKLTASDTGATALMKALLNINPNTKEIVRILLAFAEENDILGRFINAEYTEEAYEGQTALNIAIERRQGDIAALLIAAGADVNAHAKGAFFNPKYQHEGFYFGETPLALAAATNQPEIVQLLMEHEQTDITSRDSRGNNILHALVTVAEDFKTQNDFVKRMYDMILLRSGNWELETTRNNDGLTPLQLAAKMGKAEILKYILSREIKEKRLRSLSRKFTDWAYGPVSSSLYDLTNVDTTTDNSVLEITVYNTNIDNRHEMLTLEPLHTLLHMKWKKFAKHMFFLSFLFYFFYNITLTLVSYYRPREEEAIPHPLALTHKMGWLQLLGRMFVLIWAMLISVKEGIAIFLLRPSDLQSILSDAWFHFVFFIQAVLVILSVFLYLFAYKEYLAFLVLAMALGWANMLYYTRGFQSMGMYSVMIQKVILHDVLKFLFVYIVFLLGFGVALASLIEKAPKDNKDASSYGSFSDAVLELFKLTIGLGDLNIQQNSKYPILFLFLLITYVILTFVLLLNMLIALMGETVENVSKESERIWRLQRARTILEFEKMLPEWLRSRFRMGELAKVAEDDFRLALRINEVKWTEWKTHVSFLNEDPGPVRRTDFNKIQDSSRNNSKTTLNAFEEVEEFPETSV | 4 |
| human TRPV3 single-cysteine construct L513C (cysteine-free background, K169A) (natural protein, UniProt Q8NET8 1-790, looked up, C513 labelled with sulfo-Cy3 maleimide or sulfo-Cy5 maleimide (1:1 mixture) in the FRET samples, human TRPV3, full length; all 13 native cysteines replaced, L513C and K169A added; Homotetrameric channel in DDM/CHS with lipids; also called hTRPV3 L513C; S2-S3 linker construct; source: Sf9 cells, baculovirus (Bac-to-Bac), purified (DDM/CHS solubilisation, anti-FLAG resin)) MKAHPKEMVPLMGKRVAAPSGNPAILPEKRPAEITPTKKSAHFFLEIEGFEPNPTVAKTSPPVFSKPMDSNIRQAISGNADDMDSPQSPQDDVTETPSNPNSPSAQLAKEEQRRKKRRLKKRIFAAVSEGAVEELVELLVELQELARRRHDEDVPDFLMHKLTASDTGATALMKALLNINPNTKEIVRILLAFAEENDILGRFINAEYTEEAYEGQTALNIAIERRQGDIAALLIAAGADVNAHAKGAFFNPKYQHEGFYFGETPLALAAATNQPEIVQLLMEHEQTDITSRDSRGNNILHALVTVAEDFKTQNDFVKRMYDMILLRSGNWELETTRNNDGLTPLQLAAKMGKAEILKYILSREIKEKRLRSLSRKFTDWAYGPVSSSLYDLTNVDTTTDNSVLEITVYNTNIDNRHEMLTLEPLHTLLHMKWKKFAKHMFFLSFLFYFFYNITLTLVSYYRPREEEAIPHPLALTHKMGWLQLLGRMFVLIWAMLISVKEGIAIFLLRPSDCQSILSDAWFHFVFFIQAVLVILSVFLYLFAYKEYLAFLVLAMALGWANMLYYTRGFQSMGMYSVMIQKVILHDVLKFLFVYIVFLLGFGVALASLIEKAPKDNKDASSYGSFSDAVLELFKLTIGLGDLNIQQNSKYPILFLFLLITYVILTFVLLLNMLIALMGETVENVSKESERIWRLQRARTILEFEKMLPEWLRSRFRMGELAKVAEDDFRLALRINEVKWTEWKTHVSFLNEDPGPVRRTDFNKIQDSSRNNSKTTLNAFEEVEEFPETSV | 4 |
| human TRPV3 single-cysteine construct A619C (cysteine-free background, K169A) (natural protein, UniProt Q8NET8 1-790, looked up, C619 labelled with sulfo-Cy3 maleimide or sulfo-Cy5 maleimide (1:1 mixture) in the FRET samples, human TRPV3, full length; printed as A619C on the cysteine-free construct, so the native C619 stands again and the other 12 cysteines are replaced; K169A added; Homotetrameric channel in DDM/CHS with lipids; also called hTRPV3 A619C; pore turret construct; source: Sf9 cells, baculovirus (Bac-to-Bac), purified (DDM/CHS solubilisation, anti-FLAG resin)) MKAHPKEMVPLMGKRVAAPSGNPAILPEKRPAEITPTKKSAHFFLEIEGFEPNPTVAKTSPPVFSKPMDSNIRQAISGNADDMDSPQSPQDDVTETPSNPNSPSAQLAKEEQRRKKRRLKKRIFAAVSEGAVEELVELLVELQELARRRHDEDVPDFLMHKLTASDTGATALMKALLNINPNTKEIVRILLAFAEENDILGRFINAEYTEEAYEGQTALNIAIERRQGDIAALLIAAGADVNAHAKGAFFNPKYQHEGFYFGETPLALAAATNQPEIVQLLMEHEQTDITSRDSRGNNILHALVTVAEDFKTQNDFVKRMYDMILLRSGNWELETTRNNDGLTPLQLAAKMGKAEILKYILSREIKEKRLRSLSRKFTDWAYGPVSSSLYDLTNVDTTTDNSVLEITVYNTNIDNRHEMLTLEPLHTLLHMKWKKFAKHMFFLSFLFYFFYNITLTLVSYYRPREEEAIPHPLALTHKMGWLQLLGRMFVLIWAMLISVKEGIAIFLLRPSDLQSILSDAWFHFVFFIQAVLVILSVFLYLFAYKEYLAFLVLAMALGWANMLYYTRGFQSMGMYSVMIQKVILHDVLKFLFVYIVFLLGFGVALASLIEKAPKDNKDCSSYGSFSDAVLELFKLTIGLGDLNIQQNSKYPILFLFLLITYVILTFVLLLNMLIALMGETVENVSKESERIWRLQRARTILEFEKMLPEWLRSRFRMGELAKVAEDDFRLALRINEVKWTEWKTHVSFLNEDPGPVRRTDFNKIQDSSRNNSKTTLNAFEEVEEFPETSV | 4 |
| human TRPV3 single-cysteine construct A721C (cysteine-free background, K169A) (natural protein, UniProt Q8NET8 1-790, looked up, C721 labelled with sulfo-Cy3 maleimide or sulfo-Cy5 maleimide (1:1 mixture) in the FRET samples, human TRPV3, full length; printed as A721C on the cysteine-free construct, so the native C721 stands again and the other 12 cysteines are replaced; K169A added; Homotetrameric channel in DDM/CHS with lipids; also called hTRPV3 A721C; C-terminal domain construct; source: Sf9 cells, baculovirus (Bac-to-Bac), purified (DDM/CHS solubilisation, anti-FLAG resin)) MKAHPKEMVPLMGKRVAAPSGNPAILPEKRPAEITPTKKSAHFFLEIEGFEPNPTVAKTSPPVFSKPMDSNIRQAISGNADDMDSPQSPQDDVTETPSNPNSPSAQLAKEEQRRKKRRLKKRIFAAVSEGAVEELVELLVELQELARRRHDEDVPDFLMHKLTASDTGATALMKALLNINPNTKEIVRILLAFAEENDILGRFINAEYTEEAYEGQTALNIAIERRQGDIAALLIAAGADVNAHAKGAFFNPKYQHEGFYFGETPLALAAATNQPEIVQLLMEHEQTDITSRDSRGNNILHALVTVAEDFKTQNDFVKRMYDMILLRSGNWELETTRNNDGLTPLQLAAKMGKAEILKYILSREIKEKRLRSLSRKFTDWAYGPVSSSLYDLTNVDTTTDNSVLEITVYNTNIDNRHEMLTLEPLHTLLHMKWKKFAKHMFFLSFLFYFFYNITLTLVSYYRPREEEAIPHPLALTHKMGWLQLLGRMFVLIWAMLISVKEGIAIFLLRPSDLQSILSDAWFHFVFFIQAVLVILSVFLYLFAYKEYLAFLVLAMALGWANMLYYTRGFQSMGMYSVMIQKVILHDVLKFLFVYIVFLLGFGVALASLIEKAPKDNKDASSYGSFSDAVLELFKLTIGLGDLNIQQNSKYPILFLFLLITYVILTFVLLLNMLIALMGETVENVSKESERIWRLQRARTILEFEKMLPEWLRSRFRMGELCKVAEDDFRLALRINEVKWTEWKTHVSFLNEDPGPVRRTDFNKIQDSSRNNSKTTLNAFEEVEEFPETSV | 4 |
